{
  "source": "patent US20140223606",
  "about": "“COMPOSITIONS AND METHODS COMPRISING SEQUENCES HAVING MEGANUCLEASE ACTIVITY” (PIONEER HI BRED INTERNATIONAL INC, published 2014)",
  "experiment_in_all_cases": "cell_activity; yeast 37 C; 30 C: 0.5",
  "settings_in_all_cases": "tags: NLS, 6xHis",
  "key": {"ZM6.22v2(J5)": {"biological_target": "T1, ZM6.22v2(J5) (artificial)", "T1 chain": "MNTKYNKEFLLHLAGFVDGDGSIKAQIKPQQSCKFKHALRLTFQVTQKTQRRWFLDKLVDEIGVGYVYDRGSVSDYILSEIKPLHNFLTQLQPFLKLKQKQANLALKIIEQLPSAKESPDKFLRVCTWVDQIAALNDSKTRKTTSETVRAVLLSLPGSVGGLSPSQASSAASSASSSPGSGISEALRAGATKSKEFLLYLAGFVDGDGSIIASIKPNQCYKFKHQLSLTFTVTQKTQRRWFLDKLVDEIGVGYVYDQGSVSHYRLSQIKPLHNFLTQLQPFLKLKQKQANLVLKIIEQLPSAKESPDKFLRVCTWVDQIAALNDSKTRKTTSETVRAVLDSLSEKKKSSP", "description": "(§1) A 3 mL culture of selective media (MP Biomedical) was inoculated with a single colony of the yeast screening strain and grown at 30° C. overnight. On the following day, a 50 ml YPD culture (MP Biomedical) was started with 2 ml of the overnight culture and grown at 30° C. overnight. On the following day, the cells were harvested by centrifugation at 4000 rpm. The cells were resuspended in 100 ml ice cold water and centrifuged again. The cells were then washed in 1.2 M sorbitol, followed by treatment with 2 ml of 10 mM Tris pH 8.0, 1 mM EDTA, 100 mM Lithium acetate, 10 mM DTT, 0.6M sorbitol for 30 minutes at 30° C. with shaking. The cells were recovered by centrifugation, washed in 40 ml 1.2M sorbitol and finally resuspended in 250 microliters of 1.2M sorbitol. 50 microliter aliquots were transferred to test tubes on ice. Up to 5 microliters of DNA (100-500 nanograms) were added. The suspension was transferred to a 0.2 cm electroporation cuvette, on ice. Electroporation was performed with a pulse charge at 1.5 kV, 200 ohms, 25 microF (pulse time of 5 milliseconds). 1 mL YPD media (MP Biomedical) was added and the cells were allowed to recover at 30° C. for 1-2 hr. The cells were centrifuged, resuspended in 100 uL 1M sorbitol and plated on selective media lacking leucine and containing 2% galactose. The resulting yeast colonies were incubated at various temperatures ranging from 22 to 37 degrees Celsius for 7-10 days. I-CreI and meganucleases derived from it have maximal activity at or above 37 degrees Celsius. Screening was performed at a range of temperatures from 22 to 37 degrees in order to observe increases in activity at lower temperatures which are relevant to certain biological systems (eg. plant cells, plant cell cultures, etc). At that time the red/white sectoring phenotype, indicative of meganuclease activity was observed. Colonies with increased white sectoring over the parental meganuclease (indicating colonies expressing a meganuclease with increased meganuclease activity), also referred to as “hits” and sometimes completely white, were isolated for further analysis.\n(§2) A total of 13 ZM6.22v2 variants with increased activity were confirmed in the yeast system (as described in Example 6). Increased activity was observed across a range of temperatures: 28 degrees Celsius, 30 degrees Celsius and 37 degrees Celsius, as shown in Table 16."}, "ZM6.22v2(J4)": {"biological_target": "T2, ZM6.22v2(J4) (artificial)", "T2 chain": "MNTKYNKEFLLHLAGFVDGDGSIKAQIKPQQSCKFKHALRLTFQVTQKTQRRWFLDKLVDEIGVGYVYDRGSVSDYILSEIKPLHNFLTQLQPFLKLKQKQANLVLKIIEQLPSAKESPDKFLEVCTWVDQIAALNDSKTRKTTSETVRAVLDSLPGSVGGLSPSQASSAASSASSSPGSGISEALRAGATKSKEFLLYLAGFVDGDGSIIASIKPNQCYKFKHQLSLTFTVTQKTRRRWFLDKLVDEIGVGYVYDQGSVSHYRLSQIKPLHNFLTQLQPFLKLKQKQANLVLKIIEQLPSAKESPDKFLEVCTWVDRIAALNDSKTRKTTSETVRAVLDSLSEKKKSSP", "description": "as §1, §2"}, "ZM6.22v2(J3)": {"biological_target": "T3, ZM6.22v2(J3) (artificial)", "T3 chain": "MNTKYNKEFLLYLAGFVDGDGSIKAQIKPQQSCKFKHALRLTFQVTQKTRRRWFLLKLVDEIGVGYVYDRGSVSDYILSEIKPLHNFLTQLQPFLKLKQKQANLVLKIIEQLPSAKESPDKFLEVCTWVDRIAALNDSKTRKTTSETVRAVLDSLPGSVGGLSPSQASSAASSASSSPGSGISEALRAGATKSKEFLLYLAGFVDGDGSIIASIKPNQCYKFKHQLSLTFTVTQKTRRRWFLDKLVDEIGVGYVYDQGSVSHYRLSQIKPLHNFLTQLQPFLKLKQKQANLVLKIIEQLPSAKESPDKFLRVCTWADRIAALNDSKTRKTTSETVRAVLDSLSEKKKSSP", "description": "as §1, §2"}, "ZM6.22v2(I8)": {"biological_target": "T4, ZM6.22v2(I8) (artificial)", "T4 chain": "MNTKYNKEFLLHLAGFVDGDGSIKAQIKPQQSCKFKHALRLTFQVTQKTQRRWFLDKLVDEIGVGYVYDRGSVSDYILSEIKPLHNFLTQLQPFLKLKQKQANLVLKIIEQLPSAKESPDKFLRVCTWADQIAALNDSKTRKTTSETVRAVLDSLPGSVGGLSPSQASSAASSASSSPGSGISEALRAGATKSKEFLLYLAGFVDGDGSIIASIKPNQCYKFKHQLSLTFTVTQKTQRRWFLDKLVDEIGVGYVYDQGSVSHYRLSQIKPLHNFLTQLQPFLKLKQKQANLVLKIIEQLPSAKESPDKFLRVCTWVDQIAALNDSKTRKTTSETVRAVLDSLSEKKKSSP", "description": "as §1, §2"}, "ZM6.22v2(J7)": {"biological_target": "T5, ZM6.22v2(J7) (artificial)", "T5 chain": "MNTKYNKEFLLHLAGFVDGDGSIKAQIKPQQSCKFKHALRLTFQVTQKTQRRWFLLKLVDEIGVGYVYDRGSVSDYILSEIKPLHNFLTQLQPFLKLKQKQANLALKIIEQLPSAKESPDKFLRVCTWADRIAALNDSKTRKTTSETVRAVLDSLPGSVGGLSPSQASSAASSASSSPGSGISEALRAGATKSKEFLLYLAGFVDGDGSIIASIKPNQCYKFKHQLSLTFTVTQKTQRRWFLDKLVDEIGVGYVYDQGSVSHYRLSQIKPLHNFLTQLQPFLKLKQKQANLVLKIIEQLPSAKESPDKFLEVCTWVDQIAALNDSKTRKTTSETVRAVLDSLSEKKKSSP", "description": "as §1, §2"}},
  "data": [
    {"binder": "ZM6.22v2 recognition site (dsDNA) DNA 1: ATTGCTCTCTCACATACTTTTA DNA 2: TAAAAGTATGTGAGAGAGCAAT", "values": [
      {"measurement": "activity", "setting": "ZM6.22v2(J5)", "result": 4, "unit": "score 0-4"},
      {"measurement": "activity", "setting": "ZM6.22v2(J4)", "result": 3.5, "unit": "score 0-4"},
      {"measurement": "activity", "setting": "ZM6.22v2(J3)", "result": 3, "unit": "score 0-4"},
      {"measurement": "activity", "setting": "ZM6.22v2(I8)", "result": 2.5, "unit": "score 0-4"},
      {"measurement": "activity", "setting": "ZM6.22v2(J7)", "result": 3, "unit": "score 0-4"}
    ]}
  ]
}
